Measured values published in US20250043259, “ENDONUCLEASES THAT SELECTIVELY CLEAVE SINGLE-STRANDED NUCLEIC ACIDS AND USES THEREOF” (INSTITUT NATIONAL DE LA RECHERCHE SCIENTIFIQUE, published 2025).

T1: SsnA (NMV_0044) (Neisseria meningitidis 8013 2C4.3, UniProt Q9K1N6 Q9K1N6:1-94)
T1 sequence: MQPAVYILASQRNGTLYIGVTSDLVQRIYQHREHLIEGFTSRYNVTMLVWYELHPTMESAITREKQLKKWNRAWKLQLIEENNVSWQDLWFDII

B1: ssDNArev (ssDNA)
DNA: CCAGGTCTGTCGGTGCGGAAACTTATCGGATAAAACGGTTTCTTTAGATTTTACGTTCTAGATTCCCGCTTTCGCGGGAATGACGGAATATTTTTGAATT
modifications: [none]
B2: dsDNA (100 bp, NTS) (dsDNA)
DNA 1: AATTCAAAAATATTCCGTCATTCCCGCGAAAGCGGGAATCTAGAACGTAAAATCTAAAGAAACCGTTTTATCCGATAAGTTTCCGCACCGACAGACCTGG
DNA 2: B1 DNA
B3: NTS#1 (ssDNA)
DNA: GAGGTTTCGGGCAACTTCTAAACCGTCATTCCCGCGCAGGCGGGAATCCAGACCATTGGACAGCAGCAATATTCAAAGATTATCTGAAAGTCCGGGATTC
B4: NTS#4 (ssDNA)
DNA: TAAATGACCCCAACTTAAAATCCCGTCATTCCCGCGCAGGCGGGAATCTAGGTCTGTCGGTGCGGAAACTTATCGGGTAAAACGGTTTCTTGAGATTTTG
B5: NTS#3 (ssDNA)
DNA: ATCCCGTCATTCCCGCCACTTTCCGTCATTCCCGCGAAAGCGGGAATCTAGAATCTCGGACTTTCAGATAATCTTTGAATATTGCTGTTGTTCTAAGGTC
B6: RNA37 (ssRNA)
RNA: AAAAAUAUUCCGUCAUUCCCGCGAAAGCGGGAAUCUA
B7: NTS#5 (ssDNA)
DNA: GTCATTCCCACGAACCTACATTCCGTCATTCCCACGAAAGTGGGAATCCAGTGCGTTGAGTTTCAGTCATTTCCAATAAATTGCCTTAGTATTGAATGTC
B8: NTS#2 (ssDNA)
DNA: GTCATTCCCACGAACCTACATTCCGTCATTCCCACGAAAGTGGGAATCTAGAATCTCTAAAGCTTCAGCTAACCTTTGAATATTGCTGTTGTTCTAAGGT

How the values were obtained:
[1] = molecular target: T1, SsnA (NMV_0044); test: EMSA; conditions: no Mg, 50 mM NaCl, 10 mM Tris pH 7.9, 37 C; 0.5 uM protein, 0.8 uM DNA
[2] = molecular target: T1, SsnA (NMV_0044); test: cleavage_in_vitro; conditions: 10 mM MgCl2, 37 C optimum; abolished by EDTA
[3] = molecular target: T1, SsnA (NMV_0044); test: EMSA; no Mg, 37 C; also not cleaved; conditions: tags: N-terminal 6xHis; label: 5'-carboxyfluorescein
Procedure: Gel-shift (top, EMSA) and endonuclease (bottom) assays of 0.5 μM SsnA with 0.8 µM of DNA. Magnesium was omitted from the EMSA reaction mix to allow DNA binding by SsnA without nuclease activity. ssDNArev is the reverse complement of ssDNA. dsDNA is the double-stranded annealed product from ssDNA with ssDNArev. The arrow represents the recognition pattern (NTS repeat) of SsnA. Unless otherwise indicated (last well), assayed proteins were his-tagged.
Electrophoretic mobility shift assay (EMSA). Gel shift assays, or EMSA, were performed by diluting the proteins in Diluent A (NEB) to the indicated working concentrations. 5′carboxyfluorescin-tagged oligos corresponding to genomic regions of N. meningitidis MC58 were synthesized from Sigma. When needed, complementary oligonucleotides were annealed by mixing equimolar amounts in annealing buffer (10 mM Tris-HCl PH8, 50 mM NaCl, 1 mM EDTA), incubating them 5 minutes at 95° C. and letting them slowly cool down. For the gel-shift assays, proteins were mixed with the fluorescent oligonucleotides in a reaction buffer containing 50 mM NaCl, 10 mM Tris-HCl, 100 μg/ml BSA, pH7.9. The mixes were incubated at 37° C. for 30 minutes before adding native loading dye. Samples were resolved on native 10% TBE-acrylamide gels and imaged with a Typhoon FLA9500 scanner. […]

[4] = molecular target: T1, SsnA (NMV_0044); test: EMSA; binding preserved, cleavage reduced to varying extents; conditions: tags: N-terminal 6xHis; label: 5'-carboxyfluorescein; hairpin
Procedure: (§1) Electrophoretic mobility shift assay (EMSA). Gel shift assays, or EMSA, were performed by diluting the proteins in Diluent A (NEB) to the indicated working concentrations. 5′carboxyfluorescin-tagged oligos corresponding to genomic regions of N. meningitidis MC58 were synthesized from Sigma. When needed, complementary oligonucleotides were annealed by mixing equimolar amounts in annealing buffer (10 mM Tris-HCl PH8, 50 mM NaCl, 1 mM EDTA), incubating them 5 minutes at 95° C. and letting them slowly cool down. For the gel-shift assays, proteins were mixed with the fluorescent oligonucleotides in a reaction buffer containing 50 mM NaCl, 10 mM Tris-HCl, 100 μg/ml BSA, pH7.9. The mixes were incubated at 37° C. for 30 minutes before adding native loading dye. Samples were resolved on native 10% TBE-acrylamide gels and imaged with a Typhoon FLA9500 scanner. For branched DNA binding assays, a similar approach was used but the gel was stained with GelStain (Biotium) and imaged on a GelDoc (BioRad) since the oligonucleotides were not fluorescently labelled.

[5] = molecular target: T1, SsnA (NMV_0044); test: EMSA; unable to interact with RNA; conditions: tags: N-terminal 6xHis
Procedure: as §1

Molecule | binding result [4] | further results
ssDNA (100 nt, NTS) |  | binding [1]: 100 % bound; activity [2]: 100 % cleaved
B1 |  | binding result [3]: no binding
B2 |  | binding result [3]: no binding
B3 | binds | 
B4 | binds | 
B5 | binds | 
B6 |  | binding result [5]: no binding
B7 | binds | 
B8 | binds | 
